# Patent publication US10703792B2, “Insulin analogues with selective signaling properties and reduced mitogenicity” (Case Western Reserve University, priority 2015, dated 2020)
# Experiments:
# IR = IR (Homo sapiens, UniProt P06213); conditions: known in the art; cited from earlier work
# Sprague-Dawley rats = conditions: one year of treatment; cited from earlier work
# [1] = system: human breast-cancer cell line MCF-7; assay: MCF-7 colony formation in soft agar (mitogenicity); type: cell-based; conditions: 100 nM protein, 3 weeks, relative to basal; preliminary assays
# Procedure: Assay for MCF-7 Colony Formation in Soft Agar.
# In our preliminary assays MCF-7 cells (1.5×10^3 cells in 0.75 ml, obtained from ATCC cat #HTB-22), were mixed with an equal volume Bacto-agar at 42° C. This 0.3% agar suspension was poured over a 1.5-ml base of 0.6% agar in 12-well plates and overlaid with basal growth medium with (or without) insulin or insulin analogues at a protein concentration of 100 nM, which was replenished 3× per week. Plates were incubated at 37° C. in a CO2 tissue-culture incubator for 3 weeks, at which time colonies were stained with crystal violet and counted under an inverted microscope. A positive control was provided by IGF-I (not shown) and a negative control by medium lacking insulin or an insulin analogue (“basal” in FIG. 6).
# [2] = system: male Lewis rats rendered diabetic by streptozotocin; conditions: statement on a current insulin product, not tested here; cited from earlier work
substance,measurement,setting,value
"Asp^B10-insulin: insulin analogue with His^B10 substituted by Asp, known in the art",Enhancement of affinity for the IR relative to insulin,IR,twofold
same,Mammary tumors on chronic treatment,Sprague-Dawley rats,excess mammary tumors
human proinsulin: wild-type human proinsulin (SEQ ID NO: 1),Mitogenicity: MCF-7 colony formation in soft agar,[1],negligible activities
insulin detemir,Nanomoles needed for equivalent therapeutic effects,[2],threefold
